These results are taken from US20260072038A1.

For experiment [1], the target named is huCD64/human FcRI (R&D Systems 1257FC) (human) (UniProt P12314). As to the kind of experiment: SPR (Biacore), average of three BYL batches, CD64 as analyte.
The target of experiment [2] is Human TNFa (recombinant) (human) (UniProt P01375). As to the kind of experiment: SPR (Biacore), average of three BYL batches, TNFa as analyte. A general note: Surface plasmon resonance follows binding to a sensor surface in real time, without labels.
Experiment [3] deals with huCD64/human FcRI (R&D Systems 1257FC) (human) (UniProt P12314). The experiment in a line: SPR (Biacore), antibody captured on Protein A CM5 chip, CD64 as analyte.
Experiment [4] concerns the target Human TNFa (recombinant) (human) (UniProt P01375). As to the kind of experiment: SPR (Biacore), antibody captured on Protein A CM5 chip, TNFa as analyte.

A word on the Kd: it is a measure of binding affinity in units of concentration. As to “BYL-mAb (adalimumab produced in BYL, average of the three batches) (antibody)”, the Kd was 0.353 nM in experiment [1] and 0.134 nM in experiment [2].
Take “Humira CF CHJ (adalimumab produced in BYL/ALiCE, batch CHJ) (antibody)”: the Kd in experiment [3] came to 0.346 nM.
Turning to “Humira CF DAK (adalimumab produced in BYL/ALiCE, batch DAK) (antibody)”, the Kd in experiment [3] was 0.346 nM.
As usually defined, the koff is the first-order rate constant of dissociation. One may read the kon as the second-order rate constant of association. Regarding “Humira CF DB3 (adalimumab produced in BYL/ALiCE, batch DB3) (antibody)”, in experiment [4], the Kd stood at 0.122 nM, the koff worked out at 5.83e-05 s⁻¹ and the on-rate (kon) is 478000 M⁻¹ s⁻¹. In experiment [3], the equilibrium dissociation constant (Kd) came out at 0.367 nM, the koff was found to be 0.000252 s⁻¹ and the kon came to 686000 M⁻¹ s⁻¹.
Take “Reference IgG Adalinumab (Humira) (ABIN5668145), commercial adalimumab reference product expressed from CHO cells (antibody)”: in experiment [4], the dissociation constant (Kd) worked out at 0.185 nM, the koff was 8.37e-05 s⁻¹ and the on-rate (kon) was determined as 453000 M⁻¹ s⁻¹. In experiment [3], the Kd came out at 0.158 nM, the koff was determined as 0.000152 s⁻¹ and the kon is 959000 M⁻¹ s⁻¹.
